Data published in publication PMC11220700, “Activation and Purification of ß‐Glucocerebrosidase by Exploiting its Transporter LIMP‐2 – Implications for Novel Treatment Strategies in Gaucher's and Parkinson's Disease” (Advanced Science, 2024).

Target: imiglucerase/Cerezyme (recombinant GCase, Sanofi Genzyme) (Homo sapiens) (UniProt P04062)
Assay: MST
Conditions: Fc fusion

Sequence of sLIMP‐2‐FC (Sino Biological #11063‐H03H) (Q14108 27-432): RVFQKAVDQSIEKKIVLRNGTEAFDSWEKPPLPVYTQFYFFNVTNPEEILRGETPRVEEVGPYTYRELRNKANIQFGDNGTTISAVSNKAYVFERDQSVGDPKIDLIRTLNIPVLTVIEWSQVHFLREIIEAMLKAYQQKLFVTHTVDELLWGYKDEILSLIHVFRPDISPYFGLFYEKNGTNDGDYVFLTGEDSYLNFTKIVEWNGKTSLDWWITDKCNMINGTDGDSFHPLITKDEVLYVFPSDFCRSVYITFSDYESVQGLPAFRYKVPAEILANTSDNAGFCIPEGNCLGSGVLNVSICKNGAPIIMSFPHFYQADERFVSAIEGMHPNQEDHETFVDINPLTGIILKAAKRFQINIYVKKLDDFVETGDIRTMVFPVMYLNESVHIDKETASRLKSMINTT
Sequence of imiglucerase/Cerezyme (recombinant GCase, Sanofi Genzyme) (Homo sapiens) (P04062 other isoform, or with tags, fused parts or gaps): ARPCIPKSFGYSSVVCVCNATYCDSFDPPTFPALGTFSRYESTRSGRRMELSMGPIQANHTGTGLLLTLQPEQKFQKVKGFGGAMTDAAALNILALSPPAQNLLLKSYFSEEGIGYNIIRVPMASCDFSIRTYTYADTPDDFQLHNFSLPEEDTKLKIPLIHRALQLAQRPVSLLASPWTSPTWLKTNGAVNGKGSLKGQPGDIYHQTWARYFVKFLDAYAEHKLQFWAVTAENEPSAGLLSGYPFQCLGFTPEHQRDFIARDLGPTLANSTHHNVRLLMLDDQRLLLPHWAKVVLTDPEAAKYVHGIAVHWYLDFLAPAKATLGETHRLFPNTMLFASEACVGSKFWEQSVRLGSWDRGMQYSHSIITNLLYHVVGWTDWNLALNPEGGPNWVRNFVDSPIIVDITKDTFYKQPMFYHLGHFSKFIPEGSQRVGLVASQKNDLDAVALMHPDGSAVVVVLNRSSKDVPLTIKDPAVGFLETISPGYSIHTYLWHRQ

sLIMP‐2‐FC (Sino Biological #11063‐H03H)
Kd: 1380 nM
